Assay results published in patent publication US20180371086A1.

Target: human CD3, on primary human T cells (human) (UniProt P07766)
Assay: cell-based or functional assay

Sequence of human CD3, on primary human T cells (human) (P07766 23-207 limits assumed): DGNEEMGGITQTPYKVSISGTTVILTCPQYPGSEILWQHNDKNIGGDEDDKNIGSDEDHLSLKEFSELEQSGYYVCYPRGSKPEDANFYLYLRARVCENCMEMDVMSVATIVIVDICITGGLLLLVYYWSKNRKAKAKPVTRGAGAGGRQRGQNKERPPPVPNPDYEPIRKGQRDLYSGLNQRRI

Substance: PGT-121.60 (antibody)
- CD25 EC50; CD4 T cells; donor D1597; 7552-infected CEM cells: > 100 µg/mL
- CD25 EC50; CD4 T cells; donor D1597; THRO-infected CEM cells: > 100 µg/mL
- CD25 EC50; CD4 T cells; donor D1597; uninfected CEM cells: > 100 µg/mL
- CD25 EC50; CD4 T cells; donor D2256; 7552-infected CEM cells: > 100 µg/mL
- CD25 EC50; CD4 T cells; donor D2256; THRO-infected CEM cells: > 100 µg/mL
- CD25 EC50; CD4 T cells; donor D2256; uninfected CEM cells: > 100 µg/mL
- CD25 EC50; CD4 T cells; donor D4246; 7552-infected CEM cells: > 100 µg/mL
- CD25 EC50; CD4 T cells; donor D4246; THRO-infected CEM cells: > 100 µg/mL
- CD25 EC50; CD4 T cells; donor D4246; uninfected CEM cells: > 100 µg/mL
- CD25 EC50; CD4 T cells; donor D4279; 7552-infected CEM cells: > 100 µg/mL
- CD25 EC50; CD4 T cells; donor D4279; THRO-infected CEM cells: > 100 µg/mL
- CD25 EC50; CD4 T cells; donor D4279; uninfected CEM cells: > 100 µg/mL
- CD25 EC50; CD8 T cells; donor D1597; 7552-infected CEM cells: > 100 µg/mL
- CD25 EC50; CD8 T cells; donor D1597; THRO-infected CEM cells: > 100 µg/mL
- CD25 EC50; CD8 T cells; donor D1597; uninfected CEM cells: > 100 µg/mL
- CD25 EC50; CD8 T cells; donor D2256; 7552-infected CEM cells: > 100 µg/mL
- CD25 EC50; CD8 T cells; donor D2256; THRO-infected CEM cells: > 100 µg/mL
- CD25 EC50; CD8 T cells; donor D2256; uninfected CEM cells: > 100 µg/mL
- CD25 EC50; CD8 T cells; donor D4246; 7552-infected CEM cells: > 100 µg/mL
- CD25 EC50; CD8 T cells; donor D4246; THRO-infected CEM cells: > 100 µg/mL
- CD25 EC50; CD8 T cells; donor D4246; uninfected CEM cells: > 100 µg/mL
- CD25 EC50; CD8 T cells; donor D4279; 7552-infected CEM cells: > 100 µg/mL
- CD25 EC50; CD8 T cells; donor D4279; THRO-infected CEM cells: > 100 µg/mL
- CD25 EC50; CD8 T cells; donor D4279; uninfected CEM cells: > 100 µg/mL
- CD25 Δ Emax; CD4 T cells; donor D1597; 7552-infected CEM cells: 0%
- CD25 Δ Emax; CD4 T cells; donor D1597; THRO-infected CEM cells: -2%
- CD25 Δ Emax; CD4 T cells; donor D1597; uninfected CEM cells: 3%
- CD25 Δ Emax; CD4 T cells; donor D2256; 7552-infected CEM cells: 2%
- CD25 Δ Emax; CD4 T cells; donor D2256; THRO-infected CEM cells: -1%
- CD25 Δ Emax; CD4 T cells; donor D2256; uninfected CEM cells: -1%
- CD25 Δ Emax; CD4 T cells; donor D4246; 7552-infected CEM cells: -2%
- CD25 Δ Emax; CD4 T cells; donor D4246; THRO-infected CEM cells: -2%
- CD25 Δ Emax; CD4 T cells; donor D4246; uninfected CEM cells: 0%
- CD25 Δ Emax; CD4 T cells; donor D4279; 7552-infected CEM cells: -1%
- CD25 Δ Emax; CD4 T cells; donor D4279; THRO-infected CEM cells: -2%
- CD25 Δ Emax; CD4 T cells; donor D4279; uninfected CEM cells: 0%
- CD25 Δ Emax; CD8 T cells; donor D1597; 7552-infected CEM cells: -1%
- CD25 Δ Emax; CD8 T cells; donor D1597; THRO-infected CEM cells: 0%
- CD25 Δ Emax; CD8 T cells; donor D1597; uninfected CEM cells: 0%
- CD25 Δ Emax; CD8 T cells; donor D2256; 7552-infected CEM cells: 0%
- CD25 Δ Emax; CD8 T cells; donor D2256; THRO-infected CEM cells: -1%
- CD25 Δ Emax; CD8 T cells; donor D2256; uninfected CEM cells: 0%
- CD25 Δ Emax; CD8 T cells; donor D4246; 7552-infected CEM cells: 1%
- CD25 Δ Emax; CD8 T cells; donor D4246; THRO-infected CEM cells: 0%
- CD25 Δ Emax; CD8 T cells; donor D4246; uninfected CEM cells: 0%
- CD25 Δ Emax; CD8 T cells; donor D4279; 7552-infected CEM cells: 0%
- CD25 Δ Emax; CD8 T cells; donor D4279; THRO-infected CEM cells: 1%
- CD25 Δ Emax; CD8 T cells; donor D4279; uninfected CEM cells: 0%
- CD69 EC50; CD4 T cells; donor D1597; 7552-infected CEM cells: > 100 µg/mL
- CD69 EC50; CD4 T cells; donor D1597; THRO-infected CEM cells: > 100 µg/mL
- CD69 EC50; CD4 T cells; donor D1597; uninfected CEM cells: > 100 µg/mL
- CD69 EC50; CD4 T cells; donor D2256; 7552-infected CEM cells: > 100 µg/mL
- CD69 EC50; CD4 T cells; donor D2256; THRO-infected CEM cells: > 100 µg/mL
- CD69 EC50; CD4 T cells; donor D2256; uninfected CEM cells: > 100 µg/mL
- CD69 EC50; CD4 T cells; donor D4246; 7552-infected CEM cells: > 100 µg/mL
- CD69 EC50; CD4 T cells; donor D4246; THRO-infected CEM cells: > 100 µg/mL
- CD69 EC50; CD4 T cells; donor D4246; uninfected CEM cells: > 100 µg/mL
- CD69 EC50; CD4 T cells; donor D4279; 7552-infected CEM cells: > 100 µg/mL
- CD69 EC50; CD4 T cells; donor D4279; THRO-infected CEM cells: > 100 µg/mL
- CD69 EC50; CD4 T cells; donor D4279; uninfected CEM cells: > 100 µg/mL
- CD69 EC50; CD8 T cells; donor D1597; 7552-infected CEM cells: > 100 µg/mL
- CD69 EC50; CD8 T cells; donor D1597; THRO-infected CEM cells: > 100 µg/mL
- CD69 EC50; CD8 T cells; donor D1597; uninfected CEM cells: > 100 µg/mL
- CD69 EC50; CD8 T cells; donor D2256; 7552-infected CEM cells: > 100 µg/mL
- CD69 EC50; CD8 T cells; donor D2256; THRO-infected CEM cells: > 100 µg/mL
- CD69 EC50; CD8 T cells; donor D2256; uninfected CEM cells: > 100 µg/mL
- CD69 EC50; CD8 T cells; donor D4246; 7552-infected CEM cells: > 100 µg/mL
- CD69 EC50; CD8 T cells; donor D4246; THRO-infected CEM cells: > 100 µg/mL
- CD69 EC50; CD8 T cells; donor D4246; uninfected CEM cells: > 100 µg/mL
- CD69 EC50; CD8 T cells; donor D4279; 7552-infected CEM cells: > 100 µg/mL
- CD69 EC50; CD8 T cells; donor D4279; THRO-infected CEM cells: > 100 µg/mL
- CD69 EC50; CD8 T cells; donor D4279; uninfected CEM cells: > 100 µg/mL
- CD69 Δ Emax; CD4 T cells; donor D1597; 7552-infected CEM cells: 0%
- CD69 Δ Emax; CD4 T cells; donor D1597; THRO-infected CEM cells: 0%
- CD69 Δ Emax; CD4 T cells; donor D1597; uninfected CEM cells: 1%
- CD69 Δ Emax; CD4 T cells; donor D2256; 7552-infected CEM cells: 0%
- CD69 Δ Emax; CD4 T cells; donor D2256; THRO-infected CEM cells: 0%
- CD69 Δ Emax; CD4 T cells; donor D2256; uninfected CEM cells: 0%
- CD69 Δ Emax; CD4 T cells; donor D4246; 7552-infected CEM cells: 3%
- CD69 Δ Emax; CD4 T cells; donor D4246; THRO-infected CEM cells: 1%
- CD69 Δ Emax; CD4 T cells; donor D4246; uninfected CEM cells: -1%
- CD69 Δ Emax; CD4 T cells; donor D4279; 7552-infected CEM cells: 3%
- CD69 Δ Emax; CD4 T cells; donor D4279; THRO-infected CEM cells: 0%
- CD69 Δ Emax; CD4 T cells; donor D4279; uninfected CEM cells: 0%
- CD69 Δ Emax; CD8 T cells; donor D1597; 7552-infected CEM cells: 0%
- CD69 Δ Emax; CD8 T cells; donor D1597; THRO-infected CEM cells: 0%
- CD69 Δ Emax; CD8 T cells; donor D1597; uninfected CEM cells: 0%
- CD69 Δ Emax; CD8 T cells; donor D2256; 7552-infected CEM cells: 0%
- CD69 Δ Emax; CD8 T cells; donor D2256; THRO-infected CEM cells: 0%
- CD69 Δ Emax; CD8 T cells; donor D2256; uninfected CEM cells: 0%
- CD69 Δ Emax; CD8 T cells; donor D4246; 7552-infected CEM cells: 0%
- CD69 Δ Emax; CD8 T cells; donor D4246; THRO-infected CEM cells: 0%
- CD69 Δ Emax; CD8 T cells; donor D4246; uninfected CEM cells: 0%
- CD69 Δ Emax; CD8 T cells; donor D4279; 7552-infected CEM cells: -4%
- CD69 Δ Emax; CD8 T cells; donor D4279; THRO-infected CEM cells: 0%
- CD69 Δ Emax; CD8 T cells; donor D4279; uninfected CEM cells: 0%
